Results: the DeepSol protein solubility set

Test: soluble on expression in E. coli; label from the status in PepcDB or PDB records

Sequence	soluble on expression in E. coli
VDEPESMVNLAFVKNDSYEKGPDSVVVHVYVKEICRDTSRVLFREQDFTLIFQTRDGNFLRLHPGCGPHTTFRWQVKLRNLIEPEQCTFCFTASRIDICLRKRQSQRWGGLEAPAARVGGA	soluble
MSLKIILSIFLAFFLSACGVKLSLPKEVDLTQEQMKDLNLTYDWYRSYDNAKLNEFLNFVLLNNSDINIARKTLLSALARADLIDYDLYPTLSGNLGFGADKDLNSGKQSKNFNNSLNLSYELDIYGKLRDSASASEFSAKASAYDLENLKISMINTALNDVFELAYFNDVDKLLRAYLSNLEQMKELYNYKYKLGKIEELDLLNIEQSLLRAKQNLLSNDQNRNLLIKNLQDLLARQEGFAYIEYFKTLSEGHHHHHH	soluble
MPEISRDEVAHLAKLSRLALTDEELDRFAEQIDGIIGNVSAVQQVAAEGVEPMSHPHSIKTTMREDVVEQILTPEQALDQAPAVDQQRFVVPQILGEQD	not soluble
MQELQLKVTQAQVEIIDREKFEQNINEVVAKYQNYAVTAGTIKDDKQVLADLRKLKKQLSDERIKVKKELSKPADDIDGYIKQASKPLDDTIDKIATDVKEFEDHQKALRLDTVKSYLSNKASEYMLDPRIFDEKAMEYTKAGNFMADGVTLKKVTMKSLEDLVTFEYQKEQEVEKAKATISGQCAEYGMTDQPYIRMLKEMTLVEVLGQIKADYLAEKQK	not soluble
MPVEEKKKGMAIHSSLSLSLSLSLSLSLSLCDSEREG	not soluble
MSLVLNFVGTGTLTRFFLECLKDRYEIGYILSRSIDRARNLAEVYGGKAATLEKHPELNGVVFVIVPDRYIKTVANHLNLGDAVLVHCSGFLSSEIFKKSGRASIHPNFSFSSLEKALEMKDQIVFGLEGDERGLPIVKKIAEEISGKYFVIPSEKKKAYHLAAVIASNFPVALAYLSKRIYTLLGLDEPELLIHTLMKGVADNIKKMRVECSLTGPVKRGDWQVVEEERREYEKIFGNTVLYDEIVKLLREVAESERREAQEDEREGGSHHHHHH	soluble
SKCIPYSVLLKDLEMRNLRELEDLIIEAVYTDIIQGKLDQRNQLLEVDFCIGRDIRKKDINNIVKTLHEWCDGCEAVLLGIEQQVLRANQYKENHNRTQQQVEAEVTNIKKTLKATASSSAQEMEQQLAERECPPHAEQRQPTKKMSKVKGLVSSRH	soluble
MTDRLSILVPIRVLEGESVPEGVPELLAHAHVVLLGYHVIPEQTAPGQARMQFEDRATERLDEYQEMFEDAGATVERRLVFTHNGQKTIDRMIAEHDCMAVLVPNATGPVEDVLVPVRGAIGVDRLARVVASVFGEMDADVTLYHVADEDTTDDDIQTLLGGLADRLAEFGMDPSTIETRIDRDQNPLDAIVDVSDGFDTVVMGETDPSLATFVFGMPADQVANRFLGPVFVAQRERPSADEDE	not soluble
MGSDKIHHHHHHMKLPIKKAVEALLKLQTTGDSATLIGVGPMSRNLLQASFELAKEDDYPLMFIASRNQVDADELGGGYVNGWNQFSFIDAIKEVAKEVDFDGLYYVCRDHGGPWQRDQERNDHLPTEKAMELGKKSYIADIEAGFDLLMIDPTKDPFEVGKVIPLETVLERTVDLIAFCEEERKKRGLPEIGYEVGTEETNGGLTSTETYEKFITQLKVELEKRDLPLPTFIVGQTGTLTRKTEQVGHFNFKNAYDLAQMAKKYGVGLKEHNGDYLDDVTLLEHIPSEITATNVAPQYGTEETRAYLKLVELEQKLVENGLIKTPSNAREVLLIQSIKSERWRKWMLDGQKDITINEIMQDDDLSLEILDIAGHYTFNDAMVKKEINTLYANLAANNIDGKRFVIDHIKRPIRNYSECYNLKGATTRIKQLAK	not soluble
MLEKELSFADLSISLSELYEAMGYADAVPDEAVEKEVRGVLGRVEAVTSPRFCFFISGGELDESKDSLSVGDTCFSIGKIITRQLRGSESFAFFAATAGTGFERFQHTLQQEGDMVKVYIADAIGSVIAEKTADCMEIALDEYIRDRGWRHTNRFSPGYCGWHVSEQKKLFPLFPSAEPCGIRLTDSGLMLPIKSVSGVIGLGDGVRKLEYTCGLCTYDRCYRRKQRGLEHHHHHH	soluble
